Test results taken from patent US20240209065A1 (SINGLOMICS BEIJING DANXU BIOPHARMACEUTICALS, published 2024).

Assays:
Assay in all cases: cell-based or functional assay
[1] = molecular target: S protein of authentic SARS-CoV-2 Omicron BA.1 virus (SARS-CoV-2, UniProt P0DTC2 14-1273)
[2] = molecular target: S protein of authentic SARS-CoV-2 Omicron BA.2 virus (SARS-CoV-2, UniProt P0DTC2 14-1273)
[3] = molecular target: S protein of authentic SARS-CoV-2 Omicron BA.5 virus (SARS-CoV-2, UniProt P0DTC2 14-1273)
[4] = molecular target: S protein (SΔ19) of Omicron BQ.1 pseudovirus (SARS-CoV-2, UniProt P0DTC2 14-1254)
[5] = molecular target: S protein (SΔ19) of Omicron BQ.1.1 pseudovirus (SARS-CoV-2, UniProt P0DTC2 14-1254)

B1: DXP-604 monomeric IgA1 (antibody)
heavy: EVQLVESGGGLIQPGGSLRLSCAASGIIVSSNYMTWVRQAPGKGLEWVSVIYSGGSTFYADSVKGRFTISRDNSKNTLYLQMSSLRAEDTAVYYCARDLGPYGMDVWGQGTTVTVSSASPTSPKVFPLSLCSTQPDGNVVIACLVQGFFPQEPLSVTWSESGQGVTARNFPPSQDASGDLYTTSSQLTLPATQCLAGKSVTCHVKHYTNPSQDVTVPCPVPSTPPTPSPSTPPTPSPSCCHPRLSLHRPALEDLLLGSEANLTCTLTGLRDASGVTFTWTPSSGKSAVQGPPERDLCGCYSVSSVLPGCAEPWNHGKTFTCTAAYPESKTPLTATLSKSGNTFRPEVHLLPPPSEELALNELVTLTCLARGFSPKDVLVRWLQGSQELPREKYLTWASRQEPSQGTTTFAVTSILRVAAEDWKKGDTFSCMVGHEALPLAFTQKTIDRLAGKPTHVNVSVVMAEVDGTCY
light: DIQLTQSPSFLSASVGDRVTITCRASQGISSDLAWYQQKPGKAPNLLIYAASTLQSGVPSRFSGSGSGTEFTLTISSLQPEDFATYYCQQLNSDLYTFGQGTKLEIKRTVAAPSVFIFPPSDEQLKSGTASVVCLLNNFYPREAKVQWKVDNALQSGNSQESVTEQDSKDSTYSLSSTLTLSKADYEKHKVYACEVTHQGLSSPVTKSFNRGEC
IC50, microneutralization assay with authentic virus [1]: 3430 pM | fold increase of neutralization activity over parental IgG, authentic virus [1]: 6.7 fold | IC50, microneutralization assay with authentic virus [2]: 160 pM | fold increase of neutralization activity over parental IgG, authentic virus [2]: 17 fold | IC50, microneutralization assay with authentic virus [3]: 350 pM | fold increase of neutralization activity over parental IgG, authentic virus [3]: 35.5 fold

B2: DXP-604 dimeric IgA1 (antibody)
heavy: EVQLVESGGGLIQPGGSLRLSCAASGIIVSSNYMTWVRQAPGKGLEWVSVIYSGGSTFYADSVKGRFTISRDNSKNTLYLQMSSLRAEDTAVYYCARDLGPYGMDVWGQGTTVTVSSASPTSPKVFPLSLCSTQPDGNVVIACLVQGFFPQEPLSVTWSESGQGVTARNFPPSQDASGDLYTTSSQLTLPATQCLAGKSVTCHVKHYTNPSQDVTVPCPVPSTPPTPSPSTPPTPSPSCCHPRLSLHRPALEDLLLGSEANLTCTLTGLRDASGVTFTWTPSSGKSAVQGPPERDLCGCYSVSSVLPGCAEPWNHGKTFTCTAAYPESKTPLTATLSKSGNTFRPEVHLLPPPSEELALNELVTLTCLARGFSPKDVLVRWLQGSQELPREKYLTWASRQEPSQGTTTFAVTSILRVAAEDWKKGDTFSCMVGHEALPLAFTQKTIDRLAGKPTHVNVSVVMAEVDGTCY
light: DIQLTQSPSFLSASVGDRVTITCRASQGISSDLAWYQQKPGKAPNLLIYAASTLQSGVPSRFSGSGSGTEFTLTISSLQPEDFATYYCQQLNSDLYTFGQGTKLEIKRTVAAPSVFIFPPSDEQLKSGTASVVCLLNNFYPREAKVQWKVDNALQSGNSQESVTEQDSKDSTYSLSSTLTLSKADYEKHKVYACEVTHQGLSSPVTKSFNRGEC
chain: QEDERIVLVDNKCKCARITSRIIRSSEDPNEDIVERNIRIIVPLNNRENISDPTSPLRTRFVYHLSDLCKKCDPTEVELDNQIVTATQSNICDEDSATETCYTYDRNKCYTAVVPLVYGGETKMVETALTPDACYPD
IC50, microneutralization assay with authentic virus [1]: 380 pM | IC50, microneutralization assay with authentic virus [2]: 60 pM | IC50, microneutralization assay with authentic virus [3]: 130 pM | fold more potent in neutralizing than IgG, authentic virus [3]: 92 fold | IC50, pseudovirus assay (HIV platform) [4]: 3200 pM | fold increase of neutralizing activity compared to IgG, pseudovirus [4]: 2.6 fold | IC50, pseudovirus assay (HIV platform) [5]: 4880 pM | fold increase of neutralizing activity compared to IgG, pseudovirus [5]: 1.8 fold

B3: DXP-604 secretory IgA1 (antibody)
heavy: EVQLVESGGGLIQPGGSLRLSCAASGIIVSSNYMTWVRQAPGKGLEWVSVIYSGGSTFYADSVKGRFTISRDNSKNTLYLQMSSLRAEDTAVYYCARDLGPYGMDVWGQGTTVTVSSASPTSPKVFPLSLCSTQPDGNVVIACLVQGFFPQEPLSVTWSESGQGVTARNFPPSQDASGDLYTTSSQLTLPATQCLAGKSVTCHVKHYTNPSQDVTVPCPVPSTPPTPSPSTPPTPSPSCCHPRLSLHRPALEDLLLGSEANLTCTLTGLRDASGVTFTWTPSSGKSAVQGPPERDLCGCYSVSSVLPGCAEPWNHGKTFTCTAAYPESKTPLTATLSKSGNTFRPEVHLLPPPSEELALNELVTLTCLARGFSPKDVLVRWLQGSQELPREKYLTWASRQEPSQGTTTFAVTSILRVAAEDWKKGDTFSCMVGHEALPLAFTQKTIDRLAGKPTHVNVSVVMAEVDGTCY
light: DIQLTQSPSFLSASVGDRVTITCRASQGISSDLAWYQQKPGKAPNLLIYAASTLQSGVPSRFSGSGSGTEFTLTISSLQPEDFATYYCQQLNSDLYTFGQGTKLEIKRTVAAPSVFIFPPSDEQLKSGTASVVCLLNNFYPREAKVQWKVDNALQSGNSQESVTEQDSKDSTYSLSSTLTLSKADYEKHKVYACEVTHQGLSSPVTKSFNRGEC
chain 1: not shown
chain 2: not shown
IC50, microneutralization assay with authentic virus [1]: 440 pM | IC50, microneutralization assay with authentic virus [2]: 30 pM | IC50, microneutralization assay with authentic virus [3]: 90 pM | IC50, pseudovirus assay (HIV platform) [4]: 1410 pM | fold increase of neutralizing activity compared to IgG, pseudovirus [4]: 6 fold | IC50, pseudovirus assay (HIV platform) [5]: 1590 pM | fold increase of neutralizing activity compared to IgG, pseudovirus [5]: 5.5 fold
